Experimental data taken from article doi:10.1101/257543 (bioRxiv, 2018).

T1: SERK3 LRR ectodomain (SERK3^1-220), wild type (A. thaliana, UniProt Q94F62 26-220)
T1 sequence (looked up): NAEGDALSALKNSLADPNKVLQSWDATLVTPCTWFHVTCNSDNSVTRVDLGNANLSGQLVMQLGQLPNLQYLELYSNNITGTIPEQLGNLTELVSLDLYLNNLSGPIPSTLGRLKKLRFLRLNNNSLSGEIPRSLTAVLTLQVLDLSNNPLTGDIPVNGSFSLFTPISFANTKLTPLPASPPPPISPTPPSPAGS

T2: SERK3^F60A LRR ectodomain (A. thaliana, UniProt Q94F62 26-220, F60A)
T2 sequence (looked up): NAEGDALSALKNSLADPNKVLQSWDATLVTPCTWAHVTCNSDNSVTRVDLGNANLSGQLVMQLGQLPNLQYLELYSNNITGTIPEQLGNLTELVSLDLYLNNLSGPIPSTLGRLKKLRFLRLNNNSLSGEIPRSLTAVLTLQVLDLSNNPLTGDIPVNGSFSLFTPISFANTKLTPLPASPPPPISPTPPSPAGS

T3: SERK3^D122N LRR ectodomain (elg) (A. thaliana, UniProt Q94F62 26-220, D122N)
T3 sequence (looked up): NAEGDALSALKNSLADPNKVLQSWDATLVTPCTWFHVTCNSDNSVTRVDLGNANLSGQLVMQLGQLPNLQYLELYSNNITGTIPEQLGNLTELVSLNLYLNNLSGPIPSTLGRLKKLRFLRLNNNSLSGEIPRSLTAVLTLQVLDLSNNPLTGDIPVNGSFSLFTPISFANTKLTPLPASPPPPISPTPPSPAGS


What was measured:
Assay in all cases: ITC
[1] = molecular target: different SERK ectodomains
[2] = molecular target: T1, SERK3 LRR ectodomain (SERK3^1-220), …
[3] = molecular target: T2, SERK3^F60A LRR ectodomain
[4] = molecular target: T3, SERK3^D122N LRR ectodomain (elg)

Kd [1] | binding result [2] | binding result [3] | fold reduction of binding against wild-type SERK3 [4] | Kd [2] | stoichiometry N [2] | Binder
1000 to 3000 nM | binds | binds | ~8 fold |  |  | BIR2 LRR ectodomain (BIR2^1-222), wild type (domain or fragment, A. thaliana, UniProt Q9LSI9 29-222, looked up, N-glycan at Asn58 (in the crystal structure)) ADEDDIRCLRGLKASLTDPQNALKSWNFDNTTLGFLCNFVGVSCWNNQENRVINLELRDMGLSGKIPDSLQYCASLQKLDLSSNRLSGNIPTELCNWLPFLVSLDLSNNELNGEIPPDLAKCSFVNSLVLSDNRLSGQIPVQFSALGRLGRFSVANNDLSGRIPVFFSSPSYSSDDFSGNKGLCGRPLSSSCGG
 | binds |  |  |  |  | BIR2^E84R LRR ectodomain (domain or fragment, A. thaliana, UniProt Q9LSI9 29-222, looked up) ADEDDIRCLRGLKASLTDPQNALKSWNFDNTTLGFLCNFVGVSCWNNQENRVINLRLRDMGLSGKIPDSLQYCASLQKLDLSSNRLSGNIPTELCNWLPFLVSLDLSNNELNGEIPPDLAKCSFVNSLVLSDNRLSGQIPVQFSALGRLGRFSVANNDLSGRIPVFFSSPSYSSDDFSGNKGLCGRPLSSSCGG
 | binds |  |  |  |  | BIR2^V157D LRR ectodomain (domain or fragment, A. thaliana, UniProt Q9LSI9 29-222, looked up) ADEDDIRCLRGLKASLTDPQNALKSWNFDNTTLGFLCNFVGVSCWNNQENRVINLELRDMGLSGKIPDSLQYCASLQKLDLSSNRLSGNIPTELCNWLPFLVSLDLSNNELNGEIPPDLAKCSFVNSLDLSDNRLSGQIPVQFSALGRLGRFSVANNDLSGRIPVFFSSPSYSSDDFSGNKGLCGRPLSSSCGG
 | binds |  |  |  |  | BIR2^W73A LRR ectodomain (domain or fragment, A. thaliana, UniProt Q9LSI9 29-222, looked up) ADEDDIRCLRGLKASLTDPQNALKSWNFDNTTLGFLCNFVGVSCANNQENRVINLELRDMGLSGKIPDSLQYCASLQKLDLSSNRLSGNIPTELCNWLPFLVSLDLSNNELNGEIPPDLAKCSFVNSLVLSDNRLSGQIPVQFSALGRLGRFSVANNDLSGRIPVFFSSPSYSSDDFSGNKGLCGRPLSSSCGG
1000 to 3000 nM |  |  | ~4 fold | ~1000 nM | 1 | BIR3 LRR ectodomain (BIR3^1-213) (domain or fragment, A. thaliana, UniProt O04567 25-213, looked up, N-glycosylated (fully glycosylated in the crystal; sites not given)) EDDVLCLQGLKNSLIDPSSRLSSWSFPNSSASSICKLTGVSCWNEKENRIISLQLQSMQLAGEIPESLKLCRSLQSLDLSGNDLSGSIPSQICSWLPYLVTLDLSGNKLGGSIPTQIVECKFLNALILSDNKLSGSIPSQLSRLDRLRRLSLAGNDLSGTIPSELARFGGDDFSGNNGLCGKPLSRCGA
